{"source": "paper PMC4365668", "about": "“The zinc finger proteins ZNF644 and WIZ regulate the G9a/GLP complex for gene repression”", "test_in_all_cases": "EMSA; 20 mM HEPES-KOH pH 7.9, 20% glycerol, 0.2 mM EDTA, 0.1 M KCl, 0.5 mM PMSF, 1 mM DTT, 5 mM MgCl2, 1.25 ug/ul BSA, 0.2 nM DNA, 2 h at 4 C; 7.5% PAGE in TBE", "conditions_in_all_cases": "protein: recombinant; tags: GST; label: 5'-32P; blunt", "key": {"GST-ZNF644": {"molecular_target": "T1, GST-ZNF644 (human, UniProt Q9H582 1-1327)", "T1 sequence": "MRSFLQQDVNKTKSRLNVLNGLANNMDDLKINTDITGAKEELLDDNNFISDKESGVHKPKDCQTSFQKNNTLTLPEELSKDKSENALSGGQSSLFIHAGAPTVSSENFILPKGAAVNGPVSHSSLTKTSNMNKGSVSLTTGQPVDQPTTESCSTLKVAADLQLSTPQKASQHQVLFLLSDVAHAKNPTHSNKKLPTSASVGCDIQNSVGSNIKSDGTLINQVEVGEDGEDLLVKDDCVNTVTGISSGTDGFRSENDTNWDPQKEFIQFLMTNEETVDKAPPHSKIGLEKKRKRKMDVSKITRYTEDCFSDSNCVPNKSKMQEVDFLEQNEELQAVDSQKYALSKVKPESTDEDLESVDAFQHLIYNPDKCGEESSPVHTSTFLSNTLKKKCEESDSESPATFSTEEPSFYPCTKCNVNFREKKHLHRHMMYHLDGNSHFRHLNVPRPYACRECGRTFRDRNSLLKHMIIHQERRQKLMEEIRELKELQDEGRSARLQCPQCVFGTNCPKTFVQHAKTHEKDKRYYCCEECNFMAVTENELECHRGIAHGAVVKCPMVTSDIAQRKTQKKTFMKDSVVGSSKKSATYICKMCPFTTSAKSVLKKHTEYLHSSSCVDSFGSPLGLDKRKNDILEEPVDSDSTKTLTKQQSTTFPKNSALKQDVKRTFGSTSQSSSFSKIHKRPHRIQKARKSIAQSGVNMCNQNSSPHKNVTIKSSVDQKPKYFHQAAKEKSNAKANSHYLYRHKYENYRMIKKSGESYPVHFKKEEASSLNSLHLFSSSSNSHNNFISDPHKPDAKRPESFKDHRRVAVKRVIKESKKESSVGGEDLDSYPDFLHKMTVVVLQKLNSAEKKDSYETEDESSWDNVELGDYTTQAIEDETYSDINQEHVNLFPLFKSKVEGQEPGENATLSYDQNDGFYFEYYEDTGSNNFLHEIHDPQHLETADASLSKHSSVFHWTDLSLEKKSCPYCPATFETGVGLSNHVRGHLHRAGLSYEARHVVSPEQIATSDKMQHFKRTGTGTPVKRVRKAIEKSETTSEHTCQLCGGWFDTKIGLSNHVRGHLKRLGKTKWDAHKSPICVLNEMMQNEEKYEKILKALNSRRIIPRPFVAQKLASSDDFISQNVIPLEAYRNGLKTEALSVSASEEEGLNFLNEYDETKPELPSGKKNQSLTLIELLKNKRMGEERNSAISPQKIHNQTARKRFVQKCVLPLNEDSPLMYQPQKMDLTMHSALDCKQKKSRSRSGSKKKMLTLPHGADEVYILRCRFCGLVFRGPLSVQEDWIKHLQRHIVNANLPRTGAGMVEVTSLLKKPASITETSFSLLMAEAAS"}, "GST-ZNF644N300": {"molecular_target": "T2, GST-ZNF644N300 (human, UniProt Q9H582 1-300)", "T2 sequence": "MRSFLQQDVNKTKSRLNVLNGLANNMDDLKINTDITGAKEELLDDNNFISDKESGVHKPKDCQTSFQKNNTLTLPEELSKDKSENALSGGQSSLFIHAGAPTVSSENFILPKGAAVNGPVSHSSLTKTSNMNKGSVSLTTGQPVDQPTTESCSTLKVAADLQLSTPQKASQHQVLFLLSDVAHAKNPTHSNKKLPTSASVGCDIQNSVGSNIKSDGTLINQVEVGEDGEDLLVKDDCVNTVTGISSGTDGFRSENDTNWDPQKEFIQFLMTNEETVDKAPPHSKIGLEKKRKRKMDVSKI"}, "GST-WIZN200": {"molecular_target": "T3, GST-WIZN200 (human, UniProt O95785 1-200)", "T3 sequence": "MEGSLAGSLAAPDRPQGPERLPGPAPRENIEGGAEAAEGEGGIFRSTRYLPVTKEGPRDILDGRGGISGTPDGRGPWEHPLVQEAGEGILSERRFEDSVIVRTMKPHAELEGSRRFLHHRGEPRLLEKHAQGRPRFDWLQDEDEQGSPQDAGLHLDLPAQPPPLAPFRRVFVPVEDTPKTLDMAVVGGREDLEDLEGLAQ"}, "GST-WIZ": {"molecular_target": "GST-WIZ (human, UniProt O95785 1-1651)"}}, "data": [{"binder": "ZNF644 WT DNA target (dsDNA) DNA 1: GAGTAAGATCATGCCACTGGGAATCATCGAACACAGAGTGAGGCTGGG DNA 2: CCCAGCCTCACTCTGTGTTCGATGATTCCCAGTGGCATGATCTTACTC", "values": [{"measurement": "binding result", "setting": "GST-ZNF644", "value": "binds"}, {"measurement": "binding result", "setting": "GST-ZNF644N300", "value": "no binding"}]}, {"binder": "WIZ WT DNA target (dsDNA) DNA 1: GAGTCTCACTCACGCGCCATTCCATTCCATTCAGATACTAGTACGGTCAG DNA 2: CTGACCGTACTAGTATCTGAATGGAATGGAATGGCGCGTGAGTGAGACTC", "values": [{"measurement": "binding result", "setting": "GST-WIZN200", "value": "no binding"}, {"measurement": "binding result", "setting": "GST-WIZ", "value": "binds"}]}]}
